According to patent US20100160262:

Target: enzymatically [3H] acetylated histone H3 peptide (amino acids 1-24) (UniProt P68431)

human SIRT2 with a C-terminal FLAG tag
standard histone deacetylase assay (radioactive, H3 peptide substrate): These enzymes also deacetylate histones as determined in a standard histone deacetylase assay
